Results from patent publication US7067274B2, “Compositions and methods for the screening pro-apoptotic compounds” (Genentech, Inc., priority 2003, dated 2006).
“Also recorded” adds a separate entry of the source. Where two headings read alike, the source gives them in different places.

T1: ΔCARD human caspase 9 (Homo sapiens, UniProt P55211, D305A/E304A/E306A)
T1 construct: made in house
T1 sequence (P55211 139-315 E304A/D305A/E306A limits assumed): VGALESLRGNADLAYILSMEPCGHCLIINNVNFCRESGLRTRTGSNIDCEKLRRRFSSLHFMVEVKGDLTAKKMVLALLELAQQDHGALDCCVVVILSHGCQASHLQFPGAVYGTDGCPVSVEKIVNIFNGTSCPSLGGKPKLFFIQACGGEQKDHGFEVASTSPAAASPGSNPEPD
T1 sequence (P55211 316-416 limits assumed): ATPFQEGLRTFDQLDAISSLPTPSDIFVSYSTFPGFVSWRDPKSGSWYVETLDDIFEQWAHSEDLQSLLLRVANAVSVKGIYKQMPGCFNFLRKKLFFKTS

T2: caspase-9 (Homo sapiens, UniProt P55211)
T2 sequence (P55211 1-416): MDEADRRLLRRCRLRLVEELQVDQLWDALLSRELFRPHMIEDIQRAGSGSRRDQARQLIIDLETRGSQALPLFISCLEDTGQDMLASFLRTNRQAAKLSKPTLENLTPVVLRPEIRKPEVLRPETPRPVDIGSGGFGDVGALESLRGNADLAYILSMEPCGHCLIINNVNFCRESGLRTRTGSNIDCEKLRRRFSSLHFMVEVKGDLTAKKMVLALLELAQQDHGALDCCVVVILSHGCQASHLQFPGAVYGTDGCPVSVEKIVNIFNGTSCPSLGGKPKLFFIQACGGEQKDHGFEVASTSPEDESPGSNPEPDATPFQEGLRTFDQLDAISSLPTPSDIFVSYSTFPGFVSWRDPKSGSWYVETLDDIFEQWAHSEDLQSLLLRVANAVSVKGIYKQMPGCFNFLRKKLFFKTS


Legend:
ΔCARD human caspase 9 = molecular target: T1, ΔCARD human caspase 9; experiment: Determination of caspase-9 inhibitory constants (Ac-LEHD-AFC hydrolysis); type: biochemical; conditions: for Ki: read-out: Caspase-9 inhibition Ki(app)
Experimental: ΔCARD (caspase recruitment domain) human caspase 9 (lacking the first 138 residues) with Ala substitutions at residues 304 to 306 was produced as described previously (Boatright et al., (2003) Mol Cell 11: 529–541). The third BIR of […] (residues 252–348) was also prepared as described previously (Sun et al., (2000) J Biol Chem 275(43): 33777–81).
Determination of Caspase-9 Inhibitory Constants: Recombinant ΔCARD caspase 9 (300 nM final concentration in the assay) was preactivated in salt-free caspase buffer (20 mM PIPES, 10 mM EDTA, 0.1% CHAPS and 10% (w/v) sucrose, pH 7.2) for 15 min at 37° C. Following this, a range of inhibitor concentrations were preincubated with the enzyme for 20 min at 37° C. The assay was started by the addition of Ac-LEHD-AFC (100 μM final concentration) and measured kinetically for 30 min using an fmax Fluorescence Plate Reader (Molecular Devices) at an excitation wavelength of 405 nm and an emission wavelength of 510 nm. Reaction mixtures were thermostatically controlled at 37° C. The individual Ki values for the inhibitors [I] were determined from the uninhibited substrate hydrolysis rate (vo) and the inhibited rates (vi), so that a plot of (vo/vi)−1 against [I] gives Ki(app), the equilibrium inhibition constant in the presence of substrate (Salvesen and Nagase, (1989) Proteolytic enzymes: A practical approach. R. J. Beynon and J. S. Bond. Oxford, IRL Press: 83–104).

[1] = molecular target: Hid-FAM (5-carboxyflourescein-conjugated AVPFAK(5-FAM)K); experiment: Fluorescence polarization affinity measurement with Hid-FAM probe; type: binding; conditions: 5 nM Hid-FAM, apparent Kd from EC50
Experimental: Polarization experiments were performed on an Analyst™ HT 96-384 (Molecular Devices Corp.). […] The reactions were read after an incubation time of 10 minutes at room temperature with standard cut-off filters for the fluorescein fluorophore (λex=485 nm; λem=530 nm) in 96-well black HE96 plates (Molecular Devices Corp.). Fluorescence polarization values were plotted as a function of the protein concentration, and the EC50 values were obtained by fitting the data to a 4-parameter equation using Kaleidagraph™ software (Synergy software, Reading, Pa.). The apparent Kd values were determined from the EC50 values.
(§1) The binding affinity of the Hid-FAM probe for each of the BIR domains was determined directly using a fluorescence polarization-based assay and the result is shown graphically in FIG. 8.

MCF7 cells = experiment: Inhibition of doxorubicin-induced apoptosis in transfected MCF7 cells; type: cell-based; conditions: MCF7 cells transiently transfected, doxorubicin 0.5 μg/ml
Experimental: MCF7 cells were transiently transfected with the reporter plasmid pCMV-βgal and either vector control alone or BIR domain constructs. Following transfection, cells were exposed to doxorubicin (adriamycin; 0.5 μg/ml), stained with X-gal and apoptosis assessed by counting live and dead transfected cells. Percentage apoptosis represents the mean value of at least four sample points and is representative of three independent experiments.

[2] = molecular target: wild-type mature Smac protein; experiment: Fluorescence polarization competition assay, mature Smac protein; type: binding, human; conditions: competition with 5 nM Hid-FAM probe, Ki from IC50
Experimental: A PCR product containing amino acids 56–239 of Smac/DIABLO (accession number SMAC_HUMAN) was cloned into the XbaI/XhoI sites of a pet21b+ (Novagen) generating a C-terminal His6 fusion. Pet21bSmac was transformed into Escherichia coli strain BL21(DE3) competent cells (Stratagene). Overnight cultures were diluted 1:100 and grown at 37° C. in LB media with 50 μg/ml carbenicillin to an A600 of 0.8 with vigorous shaking. Isopropyl-β-D-1-thiogalactopyranoside (IPTG) was added to a final concentration of 1 mM and cultures were grown overnight at 16° C. Cell pellets were resuspended in Buffer A (50 mM Tris (pH 8.0), 300 mM NaCl, 0.5 mM PMSF, 2 mM benzamidine, 5 mM β-mercaptoethanol) with 5 mM imidazole and placed on ice for 30 minutes. Cells were homogenized, microfluidized, and centrifuged at 15,000 rpm for 45 minutes. Supernatant was loaded onto a Ni-NTA agarose column (Qiagen™), washed with 10 column volumes Buffer A with 10 mM imidazole, and eluted with 10 column volumes Buffer A with 300 mM imidazole. Fractions containing Smac protein were pooled, concentrated and loaded on a Superdex™ 200 sizing column. Protein eluted over one column volume into 50 mM Tris (pH 7.6), 300 mM NaCl, 0.5 mM PMSF, 2 mM benzamidine and 5 mM DTT. Fractions containing Smac protein were pooled and dialyzed against 3 changes of buffer containing 50 mM Tris (pH 7.6), 0.5 mM PMSF, 2 mM benzamidine and 5 mM DTT. The dialyzed sample was loaded onto a Q-Sepharose™ FF column (Pharmacia) and eluted over a 10 column volume gradient from zero to 1 M NaCl in buffer 50 mM Tris (pH 7.6), 0.5 mM PMSF, 2 mM benzamidine and 5 mM DTT. The cDNA encoding full-length ML-IAP plus a N-terminal His6-tag was cloned into the pET15b(+) expression vector (Novagen). ML-IAP was expressed in E. coli strain BL21(DE3)pLysS. […] The protein concentration of purified proteins was determined from the absorbance at 280 nm based on the molar absorption coefficients calculated from the Edelhoch relationship (Edelhoch, (1967) Biochemistry 6: 1948–1954).
Samples were read after a 10-minute incubation. Fluorescence polarization values were plotted as a function of the antagonist concentration, and the IC50 values were obtained by fitting the data to a 4-parameter equation using Kaleidagraph™ software (Synergy software; Reading, Pa.). Inhibition constants (Ki) for the antagonists were determined from the IC50 values (Keating et al., (2000) Putting the pieces together: contribution of fluorescence polarization assays to small-molecule lead optimization. Proceedings of SPIE: In-Vitro Diagnostic Instrumentation.).
as §1

caspase-9 = molecular target: T2, caspase-9; conditions: literature; read-out: inhibition constant, caspase-9; cited from earlier work
[3] = 300 nM ΔCARD caspase 9, 100 μM Ac-LEHD-AFC, 37° C.

Ki (ΔCARD human caspase 9) [nM] | fold lower potency for inhibition of caspase-9 activity relative to XIAP (ΔCARD human caspase 9; relative to XIAP) [fold] | Ki (ΔCARD human caspase 9; [3]) [nM] | fold less potent at inhibiting caspase-9 than XIAP-BIR3 (ΔCARD human caspase 9; relative to XIAP-BIR3) [fold] | fold better at inhibiting caspase-9 than MLBIR-Q (ΔCARD human caspase 9; relative to wild-type ML-IAP-BIR construct of the same length) [fold] | Kd [1] [nM] | Ki [2] [nM] | Molecule | inhibition of doxorubicin-induced apoptosis (MCF7 cells) | Ki (caspase-9) [nM]
3000 to 5000 | ~300 |  |  |  |  |  | ML-IAP: full-length melanoma inhibitor of apoptosis protein with N-terminal His6-tag (protein, left off: small tags and cut ends) MGPKDSAKCLHRGPQPSHWAAGDGPTQERCGPRSLGSPVLGLDTCRAWDHVDGQILGQLRPLTEEEEEEGAGATLSRGPAFPGMGSEELRLASFYDWPLTAEVPPELLAAAGFFHTGHQDKVRCFFCYGGLQSWKRGDDPWTEHAKWFPSCQFLLRSKGRDFVHSVQETHSQLLGSWDPWEEPEDAAPVAPSVPASGYPELPTPRREVQSESAQEPGGVSPAEAQRAWWVLEPPGARDVEAQLRRLQEERTCKVCLDRAVSIVFVPCGHLVCAECAPGLQLCPICRAPVRSRVRTFLS |  | 
 |  | 962 | ~70 | ~5 | 21 |  | MLXBIR3: ML-IAP-BIR in which amino acids 160–179 were replaced with amino acids 336–348 of XIAP-BIR3 (protein, left off: small tags and cut ends) TEEEEEEGAGATLSRGPAFPGMGSEELRLASFYDWPLTAEVPPELLAAAGFFHTGHQDKVRCFFCYGGLQSWKRGDDPWTEHAKWFPSCQFLLRSKGQEYINNIHLTHSL | confers resistance | 
 |  | 4600 |  |  | 20 | 54 | MLBIR-Q: C-terminally truncated version of ML-IAP-BIR with the same number of amino acids as MLXBIR3 and MLXBIR3SG (protein, left off: small tags and cut ends) TEEEEEEGAGATLSRGPAFPGMGSEELRLASFYDWPLTAEVPPELLAAAGFFHTGHQDKVRCFFCYGGLQSWKRGDDPWTEHAKWFPSCQFLLRSKGRDFVHSVQETHSQ |  | 
 |  | 13 |  |  | 105 | 320 | XIAP-BIR3: third BIR domain of XIAP (residues 252–348) (protein, left off: small tags and cut ends) NSTNLPRNPSMADYEARIFTFGTWIYSVNKEQLARAGFYALGEGDKVKCFHCGGGLTDWKPSEDPWEQHAKWYPGCKYLLEQKGQEYINNIHLTHSL | confers resistance | 10 to 20
 |  | < 1 |  |  |  | 59 | MLXBIR3SG: MLXBIR3 chimera with Ser 150 of ML-IAP-BIR mutated to Gly (SEQ ID NO:2) (protein, Homo sapien) MGSSHHHHHHSSGLVPRGSHMLETEEEEEEGAGATLSRGPAFPGMGSEELRLASFYDWPLTAEVPPELLAAAGFFHTGHQDKVRCFFCYGGLQSWKRGDDPWTEHAKWFPGCQFLLRSKGQEYINNIHLTHSL | significantly more efficient; also recorded: confers resistance | 
